Experimental findings from paper PMC9995270 (Nature, 2023) are described below.

For one assay, the target named is T1, His-tagged PaMurA (P. aeruginosa, UniProt Q9HVW7 1-421).
T1 construct: MurA of Pseudomonas aeruginosa PAO1; UniProt Q9HVW7 is printed for the covariation analysis; also called H–PaMurA; H–PaMurA(WT); source: purified (details in the Supplementary Information)
In words: […] (1:1), 25 mM Tris pH 8.0, 150 mM NaCl, 10% glycerol, 1 mM DTT, […]. The following applies: both partners purified.

The target of another assay is T2, H–PaMurA(E406K) (P. aeruginosa, UniProt Q9HVW7 1-421, E406K).
T2 construct: source: purified (details in the Supplementary Information)
Described as above. The following applies: both partners purified.

B1: Flag-tagged PaLpxC (enzyme)
chain: MIKQRTLKNIIRATGVGLHSGEKVYLTLKPAPVDTGIVFCRTDLDPVVEIPARAENVGETTMSTTLVKGDVKVDTVEHLLSAMAGLGIDNAYVELSASEVPIMDGSAGPFVFLIQSAGLQEQEAAKKFIRIKREVSVEEGDKRAVFVPFDGFKVSFEIDFDHPVFRGRTQQASVDFSSTSFVKEVSRARTFGFMRDIEYLRSQNLALGGSVENAIVVDENRVLNEDGLRYEDEFVKHKILDAIGDLYLLGNSLIGEFRGFKSGHALNNQLLRTLIADKDAWEVVTFEDARTAPISYMRPAAAV
notes: LpxC of Pseudomonas aeruginosa PAO1; UniProt P47205 is printed for the covariation analysis; also called F–PaLpxC; F–LpxC; source: purified (details in the Supplementary Information)
B1: the binding result with His-tagged PaMurA and with H–PaMurA(E406K) was “binds” in each case.
